Legend:
[1] = target: soluble HCV E2 (sE2661), HIS-tagged, baculovirus expressed (Hepatitis C virus (genotype not stated)); assay: BIAcore SPR
[2] = target: soluble HCV E2 (sE2661), HIS-tagged, baculovirus expressed (Hepatitis C virus (genotype not stated)); assay: BIAcore SPR, sE2 injected over antibody; lower end differs from Table 10
[3] = target: soluble HCV E2 (sE2661), HIS-tagged, baculovirus expressed (Hepatitis C virus (genotype not stated)); assay: BIAcore SPR, sE2 injected over antibody
[4] = target: HCV E1E2 glycoproteins of genotype 2a (J6) (Hepatitis C virus genotype 2a (J6)) (UniProt P26660); assay: cell-based or functional assay
[5] = target: HCV E1E2 glycoproteins of genotype 1b (Con1) (Hepatitis C virus genotype 1b (Con1)) (UniProt Q9WMX2); assay: cell-based or functional assay
Chain of HCV E1E2 glycoproteins of genotype 1b (Con1) (Hepatitis C virus genotype 1b (Con1)) (Q9WMX2 384-746 limits assumed, chain 1 of 2): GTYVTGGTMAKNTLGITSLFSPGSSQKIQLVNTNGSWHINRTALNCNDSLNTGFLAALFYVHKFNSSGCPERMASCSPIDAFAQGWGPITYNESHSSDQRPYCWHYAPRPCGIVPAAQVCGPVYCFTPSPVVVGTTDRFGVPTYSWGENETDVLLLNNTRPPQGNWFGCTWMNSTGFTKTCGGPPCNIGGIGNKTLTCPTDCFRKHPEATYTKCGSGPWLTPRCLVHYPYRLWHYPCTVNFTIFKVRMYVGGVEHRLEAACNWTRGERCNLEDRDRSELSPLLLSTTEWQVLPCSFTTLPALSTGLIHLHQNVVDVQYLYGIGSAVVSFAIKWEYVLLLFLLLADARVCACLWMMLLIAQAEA
Chain of HCV E1E2 glycoproteins of genotype 1b (Con1) (Hepatitis C virus genotype 1b (Con1)) (Q9WMX2 192-383 limits assumed, chain 2 of 2): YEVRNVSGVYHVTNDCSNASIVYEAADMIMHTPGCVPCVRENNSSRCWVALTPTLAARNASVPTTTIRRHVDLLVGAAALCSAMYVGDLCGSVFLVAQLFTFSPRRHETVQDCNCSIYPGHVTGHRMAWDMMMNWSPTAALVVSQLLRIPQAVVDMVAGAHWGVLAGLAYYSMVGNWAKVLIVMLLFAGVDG

Substance | Kd [1] [nM] | Kd [2] [nM] | Kd [3] [nM] | EC50 of HCVpp entry into Huh-7.5 cells (luciferase) [4] [µg/mL] | EC50 of HCVpp entry into Huh-7.5 cells (luciferase) [5] [µg/mL]
AP33 Fab | 50 | – | – | – | –
AP33 monoclonal antibody | – | 0.5 to 8 | 5 to 8 | 2.07 | 1.42

From US20110002926A1
